As usually defined, the Kd is the free concentration of one partner at which half of the binding sites on the other are occupied at equilibrium, for simple one-to-one binding. The low end stands for tighter binding, the high end for weaker binding.

Consider 2 substances from article PMC11821526.

The target of assay [1] is pep3 …[X]-CONH2, X = Ala. The assay can be described thus: fluorescence polarisation; FBXO31–SKP1 complex (0–5 µM) titrated to fluorescein-labelled peptide (2–10 nM); 25 mM HEPES, 150 mM NaCl, pH 7.5; room temperature, 30 min; one-site fit, n = 3 parallel experiments.
The target of assay [2] is pep3 …[X]-CONH2, X = Arg. The assay is described as above.
For assay [3], the target named is pep3 …[X]-CONH2, X = Cys. The assay is described as above.
Assay [4] has as its target pep3 …[X]-CONH2, X = Glu. Described as above.
Assay [5] deals with pep3 …[X]-CONH2, X = Gly. Described as above.
In assay [6] the target is pep3 …[X]-CONH2, X = His. The description is as above.
Assay [7] concerns the target pep3 …[X]-CONH2, X = Ile. The description is as above.
For assay [8], the target named is pep3 …[X]-CONH2, X = Leu. The description is as above.
In assay [9] the target is pep3 …[X]-CONH2, X = Lys. Described as above.
For assay [10], the target named is pep3 …[X]-CONH2, X = Met. The assay is described as above.
For assay [11], the target named is pep3 …[X]-CONH2, X = Pro. The description is as above.
The target of assay [12] is pep3 …[X]-CONH2, X = Ser. The assay is described as above.
For assay [13], the target named is pep3 …[X]-CONH2, X = Thr. Described as above.
Assay [14] addresses pep3 …[X]-CONH2, X = Trp. The description is as above.
For assay [15], the target named is pep3 …[X]-CONH2, X = Tyr. The assay is described as above.
The target of assay [16] is pep3 …[X]-CONH2, X = Val. Described as above.
Assay [17] addresses pep3 with terminal Asn amide (…-CONH2). The assay can be described thus: fluorescence polarisation; FBXO31–SKP1 complex (0–5 µM) titrated against fluorescein-labelled peptides (2–10 nM); 25 mM HEPES, 150 mM NaCl, pH 7.5, room temperature, 30 min; one-site fit; constants of the highest affinity probes only approximate. For orientation: In fluorescence polarisation assays a small probe gives low polarisation when free and higher when bound to something large.

The target in assay [18] is pep3 with terminal Asp amide (…-CONH2). The assay is described as above.
Assay [19] deals with pep3 with terminal Gln amide (…-CONH2). Described as above.
For assay [20], the target named is pep3 with terminal Phe amide (…-CONH2). Described as above.

On to “FBXO31–SKP1 complex (StrepII-FBXO31.1(∆1–65) with SKP1(A2P,∆38–43,∆71–82)) (from UniProt Q5XUX0 66-539; P63208 1-163)”, for which the Kd in assay [1] is 54.4 nM; in [2], 71 nM; in assay [3] it was 19.9 nM; in assay [4], 103 nM; in [5], 137 nM; in assay [6], 13.2 nM. Besides, the Kd in assay [7] turned out to be 32.1 nM; in [8] it was 41.4 nM; in [9], 93.8 nM; in assay [10], 21 nM; in [11] it was 58.2 nM; in assay [12], 49.6 nM. The Kd in assay [13] was determined as 42 nM; in assay [14] it was 38.2 nM; in [15], 25.9 nM; in assay [16], 43.7 nM.
For the substance “recombinant FBXO31–SKP1 complex (wild type) (from UniProt Q5XUX0 66-539; P63208 1-163)”, the dissociation constant Kd in [17] worked out at 24 nM; in assay [18], 304 nM; in assay [19], 55 nM; in [20], 6 nM.
